Measurements: the supplement of paper PMC10065799, “High-throughput profiling of sequence recognition by tyrosine kinases and SH2 domains using bacterial peptide display” (eLife, 2023)

Key:
c-Src = test: phosphorylation enrichment, bacterial display (enrichment ratio); higher = better substrate or ligand; peptides without Tyr show the background
Fes = Fes (UniProt P07332); test: as above
EPHB2 = EPHB2 (UniProt P29323); test: as above
AncSZ = test: as above
FGFR1 = FGFR1 (UniProt P11362); test: as above
MERTK = MERTK (UniProt Q12866); test: as above
Chain of MERTK (Q12866 whole entry, looked up): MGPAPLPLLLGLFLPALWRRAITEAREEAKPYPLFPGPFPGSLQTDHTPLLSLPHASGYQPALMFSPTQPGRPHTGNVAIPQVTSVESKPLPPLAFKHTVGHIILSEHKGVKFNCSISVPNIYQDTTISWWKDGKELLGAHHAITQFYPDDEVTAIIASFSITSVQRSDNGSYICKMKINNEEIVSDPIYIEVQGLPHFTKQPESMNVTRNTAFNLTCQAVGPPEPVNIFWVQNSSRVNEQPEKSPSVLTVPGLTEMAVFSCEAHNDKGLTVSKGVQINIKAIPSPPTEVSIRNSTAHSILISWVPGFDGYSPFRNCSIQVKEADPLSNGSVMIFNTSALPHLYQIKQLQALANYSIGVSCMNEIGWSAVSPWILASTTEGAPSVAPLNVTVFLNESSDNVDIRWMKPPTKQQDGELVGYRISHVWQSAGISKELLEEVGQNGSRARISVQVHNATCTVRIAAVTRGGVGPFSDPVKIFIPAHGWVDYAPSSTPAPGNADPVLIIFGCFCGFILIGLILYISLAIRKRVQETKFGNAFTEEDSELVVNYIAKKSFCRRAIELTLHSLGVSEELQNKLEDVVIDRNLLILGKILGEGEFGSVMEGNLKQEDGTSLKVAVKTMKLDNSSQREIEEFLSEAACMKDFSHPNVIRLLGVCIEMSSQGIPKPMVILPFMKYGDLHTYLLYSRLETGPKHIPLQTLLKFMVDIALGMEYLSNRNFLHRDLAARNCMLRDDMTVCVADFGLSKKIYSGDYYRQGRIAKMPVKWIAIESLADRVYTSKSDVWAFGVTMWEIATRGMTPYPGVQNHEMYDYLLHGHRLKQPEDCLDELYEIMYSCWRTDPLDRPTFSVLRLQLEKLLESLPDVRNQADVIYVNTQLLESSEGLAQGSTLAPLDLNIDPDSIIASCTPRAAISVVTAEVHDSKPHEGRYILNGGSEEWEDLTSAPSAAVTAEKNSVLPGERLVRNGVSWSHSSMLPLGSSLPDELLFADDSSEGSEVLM

Jak2 = Jak2 (UniProt O60674); test: as above
Chain of Jak2 (O60674 whole entry, looked up): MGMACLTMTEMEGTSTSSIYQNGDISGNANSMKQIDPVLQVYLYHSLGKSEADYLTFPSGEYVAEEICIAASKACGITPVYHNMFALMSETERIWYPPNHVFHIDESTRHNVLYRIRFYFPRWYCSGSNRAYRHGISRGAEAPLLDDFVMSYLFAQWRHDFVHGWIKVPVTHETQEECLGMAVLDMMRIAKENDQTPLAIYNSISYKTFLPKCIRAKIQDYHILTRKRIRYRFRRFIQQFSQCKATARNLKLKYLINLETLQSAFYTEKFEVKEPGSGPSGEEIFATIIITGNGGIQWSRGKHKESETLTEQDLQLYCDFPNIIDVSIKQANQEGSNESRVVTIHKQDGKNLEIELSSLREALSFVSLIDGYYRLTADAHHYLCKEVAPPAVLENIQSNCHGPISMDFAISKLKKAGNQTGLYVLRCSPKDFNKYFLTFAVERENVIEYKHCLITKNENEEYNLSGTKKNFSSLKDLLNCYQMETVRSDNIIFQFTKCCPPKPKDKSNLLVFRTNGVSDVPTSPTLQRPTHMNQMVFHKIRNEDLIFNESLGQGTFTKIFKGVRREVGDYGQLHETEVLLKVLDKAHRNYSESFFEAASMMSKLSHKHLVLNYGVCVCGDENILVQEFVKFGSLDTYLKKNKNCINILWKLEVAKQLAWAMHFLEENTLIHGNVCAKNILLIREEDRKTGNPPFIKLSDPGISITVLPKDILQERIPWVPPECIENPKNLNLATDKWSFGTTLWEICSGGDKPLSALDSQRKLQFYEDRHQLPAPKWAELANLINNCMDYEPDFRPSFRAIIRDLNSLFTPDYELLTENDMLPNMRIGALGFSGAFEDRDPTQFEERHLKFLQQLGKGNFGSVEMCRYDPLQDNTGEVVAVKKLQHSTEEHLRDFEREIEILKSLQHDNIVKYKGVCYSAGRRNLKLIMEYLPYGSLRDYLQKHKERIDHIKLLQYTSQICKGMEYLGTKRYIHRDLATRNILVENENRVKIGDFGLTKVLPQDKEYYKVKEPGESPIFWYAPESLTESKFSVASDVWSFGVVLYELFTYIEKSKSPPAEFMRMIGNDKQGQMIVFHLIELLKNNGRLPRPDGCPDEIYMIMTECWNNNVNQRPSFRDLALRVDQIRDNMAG

EPHB1 = EPHB1 (UniProt P54762); test: as above
FGFR3 = FGFR3 (UniProt P22607); test: as above
Chain of FGFR3 (P22607 whole entry, looked up): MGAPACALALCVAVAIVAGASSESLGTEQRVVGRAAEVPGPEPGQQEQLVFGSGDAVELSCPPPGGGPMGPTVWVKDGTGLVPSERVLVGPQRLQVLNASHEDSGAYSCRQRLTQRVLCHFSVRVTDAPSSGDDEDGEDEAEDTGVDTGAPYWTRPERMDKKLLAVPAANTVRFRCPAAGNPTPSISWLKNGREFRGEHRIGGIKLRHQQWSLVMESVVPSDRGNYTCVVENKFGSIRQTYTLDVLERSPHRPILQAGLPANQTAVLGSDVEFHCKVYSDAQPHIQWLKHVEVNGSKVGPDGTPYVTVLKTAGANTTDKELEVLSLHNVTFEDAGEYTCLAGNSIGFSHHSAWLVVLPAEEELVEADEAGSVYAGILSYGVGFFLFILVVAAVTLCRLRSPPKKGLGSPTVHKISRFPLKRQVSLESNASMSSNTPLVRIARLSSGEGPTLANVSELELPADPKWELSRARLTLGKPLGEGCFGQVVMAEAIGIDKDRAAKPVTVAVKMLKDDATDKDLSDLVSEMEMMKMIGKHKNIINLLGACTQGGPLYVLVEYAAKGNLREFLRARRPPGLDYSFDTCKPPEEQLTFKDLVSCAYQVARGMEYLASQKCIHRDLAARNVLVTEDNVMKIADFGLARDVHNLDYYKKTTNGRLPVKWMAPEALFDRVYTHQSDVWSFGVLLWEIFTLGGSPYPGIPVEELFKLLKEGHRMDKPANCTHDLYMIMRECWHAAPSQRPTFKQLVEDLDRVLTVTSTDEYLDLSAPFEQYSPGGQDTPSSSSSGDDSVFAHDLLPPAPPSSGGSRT

Fer (mouse) = test: as above
c-Abl (mouse) = test: as above
Hck = Hck (UniProt P08631); test: as above
Chain of Hck (P08631 whole entry, looked up): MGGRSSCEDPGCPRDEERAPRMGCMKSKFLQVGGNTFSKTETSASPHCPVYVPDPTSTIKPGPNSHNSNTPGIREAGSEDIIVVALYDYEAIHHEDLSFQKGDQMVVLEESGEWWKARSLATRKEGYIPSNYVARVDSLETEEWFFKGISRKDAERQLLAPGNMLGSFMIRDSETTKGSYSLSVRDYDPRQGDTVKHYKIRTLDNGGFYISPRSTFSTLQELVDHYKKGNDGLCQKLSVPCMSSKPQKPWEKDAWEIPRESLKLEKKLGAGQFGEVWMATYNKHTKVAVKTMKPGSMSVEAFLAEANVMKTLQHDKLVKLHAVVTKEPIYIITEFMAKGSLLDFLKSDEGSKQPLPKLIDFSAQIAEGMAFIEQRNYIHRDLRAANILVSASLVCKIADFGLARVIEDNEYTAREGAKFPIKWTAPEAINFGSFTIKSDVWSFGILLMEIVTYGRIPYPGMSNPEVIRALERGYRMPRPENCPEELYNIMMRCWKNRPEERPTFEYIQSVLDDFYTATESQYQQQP

Fyn = Fyn (UniProt P06241); test: as above
Chain of Fyn (P06241 whole entry, looked up): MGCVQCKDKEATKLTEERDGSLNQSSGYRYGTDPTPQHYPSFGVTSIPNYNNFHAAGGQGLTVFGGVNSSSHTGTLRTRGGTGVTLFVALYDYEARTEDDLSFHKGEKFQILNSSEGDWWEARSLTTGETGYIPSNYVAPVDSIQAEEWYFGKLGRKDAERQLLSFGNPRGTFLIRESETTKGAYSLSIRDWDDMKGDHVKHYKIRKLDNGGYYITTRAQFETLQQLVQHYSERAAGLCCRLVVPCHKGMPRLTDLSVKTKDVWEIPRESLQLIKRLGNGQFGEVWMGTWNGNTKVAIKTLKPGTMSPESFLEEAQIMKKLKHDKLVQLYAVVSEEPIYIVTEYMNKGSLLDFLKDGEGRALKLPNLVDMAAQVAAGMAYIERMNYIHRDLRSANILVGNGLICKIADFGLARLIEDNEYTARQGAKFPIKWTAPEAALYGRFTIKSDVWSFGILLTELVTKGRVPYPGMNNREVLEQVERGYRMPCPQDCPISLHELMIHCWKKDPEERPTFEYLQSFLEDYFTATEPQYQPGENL

Grb2 SH2 = Grb2 SH2 (UniProt P62993); test: SH2 binding enrichment of the phosphorylated peptide, bacterial display (enrichment ratio); higher = better substrate or ligand; peptides without Tyr show the background
SHP2-C SH2 = test: as above
c-Src SH2 = test: as above
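For SH2 binding enrichment of the phosphorylated peptide, bacterial display in this document: peptide library displayed on the E. coli surface as eCPX fusions, selected cells deep-sequenced, score is each peptide's frequency after selection divided by its frequency in the input.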
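For phosphorylation enrichment, bacterial display in this document: 11-residue human phosphosite peptides and single-mutation variants displayed on the E. coli surface, counted by deep sequencing, each peptide's frequency after selection divided by its frequency in the unselected input library; frequency after pTyr selection over input frequency; kinase dosed for 20-30% of maximal phosphorylation in three min.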

Chain of EPHB2 (P29323 whole entry, looked up): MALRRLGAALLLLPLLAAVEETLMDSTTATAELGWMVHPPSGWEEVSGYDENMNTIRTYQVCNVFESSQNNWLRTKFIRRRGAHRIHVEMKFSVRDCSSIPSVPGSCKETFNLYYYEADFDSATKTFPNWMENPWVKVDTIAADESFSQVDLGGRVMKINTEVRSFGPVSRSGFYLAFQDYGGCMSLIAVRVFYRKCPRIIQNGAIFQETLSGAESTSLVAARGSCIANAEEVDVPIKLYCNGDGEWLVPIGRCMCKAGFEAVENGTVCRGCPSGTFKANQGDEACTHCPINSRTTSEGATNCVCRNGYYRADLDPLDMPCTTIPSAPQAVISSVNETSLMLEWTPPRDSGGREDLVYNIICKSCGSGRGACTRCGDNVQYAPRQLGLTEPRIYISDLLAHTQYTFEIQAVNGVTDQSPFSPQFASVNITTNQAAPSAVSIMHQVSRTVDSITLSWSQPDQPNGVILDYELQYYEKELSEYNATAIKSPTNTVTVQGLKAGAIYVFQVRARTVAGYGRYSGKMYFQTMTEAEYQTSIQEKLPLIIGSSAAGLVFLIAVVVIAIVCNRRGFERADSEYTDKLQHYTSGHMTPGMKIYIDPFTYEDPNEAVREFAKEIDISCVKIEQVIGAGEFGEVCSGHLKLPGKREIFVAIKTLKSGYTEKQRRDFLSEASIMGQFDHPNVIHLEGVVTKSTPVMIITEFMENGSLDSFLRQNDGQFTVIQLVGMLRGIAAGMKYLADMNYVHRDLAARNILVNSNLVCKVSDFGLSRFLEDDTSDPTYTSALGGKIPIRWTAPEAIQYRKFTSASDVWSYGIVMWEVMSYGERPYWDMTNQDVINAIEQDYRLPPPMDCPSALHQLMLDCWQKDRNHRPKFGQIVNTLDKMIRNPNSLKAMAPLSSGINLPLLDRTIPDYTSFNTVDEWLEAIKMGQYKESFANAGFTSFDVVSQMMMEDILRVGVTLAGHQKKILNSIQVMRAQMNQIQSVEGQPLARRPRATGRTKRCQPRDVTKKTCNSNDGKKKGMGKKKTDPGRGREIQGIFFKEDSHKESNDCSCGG

Row | SH2 binding enrichment (Grb2 SH2) | SH2 binding enrichment (SHP2-C SH2) | SH2 binding enrichment (c-Src SH2) | Sequence | phosphorylation enrichment (c-Src) | phosphorylation enrichment (Fes) | phosphorylation enrichment (EPHB2) | phosphorylation enrichment (AncSZ) | phosphorylation enrichment (FGFR1) | phosphorylation enrichment (MERTK) | phosphorylation enrichment (Jak2) | phosphorylation enrichment (EPHB1) | phosphorylation enrichment (FGFR3) | phosphorylation enrichment (Fer (mouse)) | phosphorylation enrichment (c-Abl (mouse)) | phosphorylation enrichment (Hck) | phosphorylation enrichment (Fyn)
1 | 0.576 | 0.762 | 0.262 | PGVDRYSLGTS [C5orf42_Y1451] | 0.737 | 0.973 | 0.788 | 0.789 | 0.755 | 0.788 | 0.769 | 0.577 | 0.745 | 0.57 | 0.741 | 0.678 | 0.702
2 | 0.631 | 0.719 | 0.457 | VECQVYAEDPY [PCCA_Y401_R399Q] | 1.02 | 1.65 | 0.8 | 1.51 | 0.575 | 0.466 | 1.28 | 0.828 | 1.12 | 0.846 | 0.981 | 0.669 | 0.765
3 | 0.851 | 0.731 | 0.397 | HFEDGYPGGSD [CTNND1_Y221_YF] | 0.514 | 1.45 | 0.675 | 1.15 | 0.668 | 0.598 | 0.955 | 0.656 | 0.806 | 0.5 | 0.485 | 0.756 | 0.74
4 | 0.729 | 0.691 | 0.973 | IKRIAYEFVEM [ADA_Y84] | 0.383 | 0.837 | 0.478 | 0.85 | 0.564 | 0.388 | 0.701 | 0.387 | 0.58 | 2.96 | 0.599 | 0.414 | 0.438
5 | 0.708 | 0.685 | 0.602 | KCCCIYEKPRS [PPP1R11_Y64_A69S] | 3.04 | 1.01 | 0.892 | 1.86 | 0.456 | 1.17 | 0.642 | 1.03 | 0.667 | 7.18 | 3.97 | 2.45 | 2.07
6 | 0.628 | 0.742 | 0.412 | IYQASYYRRGD [LTK_Y676_R673Q] | 6.2 | 0.695 | 0.66 | 0.822 | 0.479 | 6.37 | 0.528 | 0.659 | 0.473 | 1.43 | 11.5 | 10.6 | 7.6
7 | 0.812 | 0.997 | 0.531 | RDMMDYMLQGV [CYP21A2_Y259] | 1.09 | 1.19 | 0.827 | 1.2 | 0.73 | 0.488 | 1.63 | 1.34 | 0.869 | 0.612 | 0.962 | 0.581 | 0.673
8 | 1.06 | 1.09 | 0.594 | QCTSAYPLQPE [NANS_Y188] | 0.728 | 1.46 | 0.813 | 1.51 | 0.616 | 0.682 | 1.65 | 0.719 | 0.942 | 0.675 | 2.7 | 0.623 | 0.832

Row | Sequence | SH2 binding enrichment (Grb2 SH2) | SH2 binding enrichment (SHP2-C SH2) | SH2 binding enrichment (c-Src SH2) | phosphorylation enrichment (c-Src) | phosphorylation enrichment (Fes) | phosphorylation enrichment (EPHB2) | phosphorylation enrichment (AncSZ) | phosphorylation enrichment (FGFR1) | phosphorylation enrichment (MERTK) | phosphorylation enrichment (Jak2) | phosphorylation enrichment (EPHB1) | phosphorylation enrichment (FGFR3) | phosphorylation enrichment (Fer (mouse)) | phosphorylation enrichment (c-Abl (mouse)) | phosphorylation enrichment (Hck) | phosphorylation enrichment (Fyn)
9 | YDRREYSRFEK [ITGB7_Y758] | 1.02 | 0.813 | 0.737 | 0.702 | 0.957 | 0.483 | 0.902 | 0.459 | 0.512 | 0.925 | 0.486 | 0.554 | 0.545 | 0.96 | 0.673 | 0.498
